From patent publication US20240247080A1, “GLP1/GIP/NPY2 RECEPTOR TRIPLE AGONISTS” (Boehringer Ingelheim International GmbH, priority 2022, published 2024)
Changes are numbered by the printed parent chain. Starred links: 1 amine or outer side, 2 acyl side, 3 side chain; linkers in the order of their positions; H or OH if unused. Non-standard residues stand in square brackets, D forms with d. Groups on a side chain read outwards from the residue. No end group written: not given here. *: point of attachment. C20 diacid = O=C(O)CCCCCCCCCCCCCCCCCCC(=O)*; γGlu = O=C(O)[C@H](CCC(=O)[*:2])N[*:1]; εLys = N[C@@H](CCCCN[*:1])C(=O)[*:2]; Aib = CC(C)(N)C(=O)O

T1: NPY2 receptor (human (printed as hNPY2R), UniProt P49146 1-381)
T1 sequence (looked up): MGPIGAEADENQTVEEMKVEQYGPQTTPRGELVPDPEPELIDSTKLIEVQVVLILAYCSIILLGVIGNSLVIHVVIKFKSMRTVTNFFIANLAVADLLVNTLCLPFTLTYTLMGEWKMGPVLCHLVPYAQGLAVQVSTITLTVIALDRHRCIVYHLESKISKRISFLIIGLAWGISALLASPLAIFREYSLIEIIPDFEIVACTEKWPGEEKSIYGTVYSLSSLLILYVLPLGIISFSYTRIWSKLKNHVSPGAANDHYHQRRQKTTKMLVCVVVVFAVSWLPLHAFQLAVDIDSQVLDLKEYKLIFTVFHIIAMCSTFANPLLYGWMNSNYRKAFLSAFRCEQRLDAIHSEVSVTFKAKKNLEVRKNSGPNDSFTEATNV

T2: GIP receptor (human (printed as hGIPR), UniProt P48546 22-466)
T2 sequence (looked up): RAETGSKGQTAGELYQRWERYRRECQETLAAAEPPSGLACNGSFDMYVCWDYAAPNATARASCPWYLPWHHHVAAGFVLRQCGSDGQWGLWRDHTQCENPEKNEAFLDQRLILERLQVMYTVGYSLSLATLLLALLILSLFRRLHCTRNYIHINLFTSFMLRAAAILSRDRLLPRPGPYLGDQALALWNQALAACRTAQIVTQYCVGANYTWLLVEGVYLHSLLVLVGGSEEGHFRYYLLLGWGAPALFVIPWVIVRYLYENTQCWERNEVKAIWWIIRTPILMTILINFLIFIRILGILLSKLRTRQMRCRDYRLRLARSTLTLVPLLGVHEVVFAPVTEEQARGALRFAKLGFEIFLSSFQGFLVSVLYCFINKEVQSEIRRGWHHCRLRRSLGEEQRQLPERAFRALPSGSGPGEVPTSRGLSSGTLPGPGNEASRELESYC

B1: Compound 229 (peptide)
peptide: YXEGTFTSDYSIXLEKQAQXAFVEWLIKGGPSSGASLRHYYNWLTRQRY
modifications: Aib at 2, 13, 20; K28 side chain carries C20DA-gGlu-gGlu-gGlu-gGlu-gGlu-OEG-OEG; C-terminal amide
B2: Compound 222 (peptide)
peptide: B1 peptide with S33E
modifications: Aib at 2, 13, 20; NMeQ (N-methyl-L-glutamine) at 47; K28 side chain carries C20DA-gGlu-gGlu-gGlu-gGlu-gGlu-gGlu-eLys; C-terminal amide
B3: Compound 220 (peptide)
peptide: B1 peptide with E24Q, S33E
modifications: Aib at 2, 13, 20; K28 side chain carries C20DA-gGlu-gGlu-gGlu-gGlu-gGlu-gGlu-eLys; C-terminal amide
B4: Compound 228 (peptide)
peptide: B1 peptide with E24Q, S33E
modifications: Aib at 2, 13, 20; K28 side chain carries C20DA-gGlu-gGlu-gGlu-gGlu-gGlu-OEG-OEG; C-terminal amide
B5: Compound 216 (peptide)
peptide: B1 peptide with X20R
modifications: Aib at 2, 13; D-Arg at 20; K28 side chain carries C20DA-gGlu-gGlu-gGlu-gGlu-gGlu-gGlu-eLys; C-terminal amide
B6: Compound 213 (peptide)
peptide: B1 peptide with N42X
modifications: Aib at 2, 13, 20, 42; K28 side chain carries C20DA-gGlu-gGlu-gGlu-gGlu-gGlu-gGlu-eLys; C-terminal amide
B7: Compound 227 (peptide)
peptide: B1 peptide with S33E, A35Q
modifications: Aib at 2, 13, 20; K28 side chain carries C20DA-gGlu-gGlu-gGlu-gGlu-gGlu-gGlu-eLys; C-terminal amide
B8: Compound 215 (peptide)
peptide: B1 peptide with A21E
modifications: Aib at 2, 13, 20; K28 side chain carries C20DA-gGlu-gGlu-gGlu-gGlu-gGlu-gGlu-eLys; C-terminal amide
B9: Compound 211 (peptide)
peptide: B1 peptide with X20D
modifications: Aib at 2, 13; D-Asp at 20; K28 side chain carries C20DA-gGlu-gGlu-gGlu-gGlu-gGlu-gGlu-eLys; C-terminal amide
B10: Compound 224 (peptide)
peptide: Y[Aib]EGTFTSDYSI[Aib]LEKQAQ[Aib]AFVQWLIK([εLys-γGlu-γGlu-γGlu-γGlu-γGlu-γGlu-γGlu-C20 diacid])GGPSEGASLRHYYNWLTRQRY-NH2
modifications: also: TFA salt
B11: Compound 212 (peptide)
peptide: Y[Aib]EGTFTSDYSI[Aib]LEKQAQ[Aib]AFVEWLIKGGPSSGVSLRHYYNWLTRQRY-NH2
modifications: not fully specified (residue 28); also: TFA salt

target: T1, NPY2 receptor; test: cell-based or functional assay

| EC50 hNPY2R 0.5% hP (CreLuc) | EC50 hNPY2R 100% hP (CreLuc) | Binder |
| --- | --- | --- |
| 10.8 nM | 27.2 nM | B1 |
| 13.3 nM | 41.6 nM | B2 |
| 10.2 nM | 42.6 nM | B3 |
| 9.6 nM | 30.1 nM | B4 |
| 2.81 nM | 16.8 nM | B5 |
| > 100 nM | > 1000 nM | B6 |
| 10.2 nM | 44.2 nM | B7 |
| 12.4 nM | 22.5 nM | B8 |
| 11.2 nM | 56.3 nM | B9 |
| 10.6 nM | 31.6 nM | B10 |
| 13.5 nM | 122 nM | B11 |

target: GLP-1 receptor (human (printed as hGLP1R), UniProt P43220 24-463); test: cell-based or functional assay

| EC50 hGLP1R 0.5% hP (CreLuc) | EC50 hGLP1R 100% hP (CreLuc) | Binder |
| --- | --- | --- |
| 0.1 nM | 3.31 nM | B1 |
| 0.24 nM | 4.43 nM | B2 |
| 0.17 nM | 5.28 nM | B3 |
| 0.12 nM | 4.18 nM | B4 |
| 0.31 nM | 10.6 nM | B5 |
| 0.16 nM | 3.03 nM | B6 |
| 0.13 nM | 3.07 nM | B7 |
| 0.66 nM | 14 nM | B8 |
| 0.74 nM | 25.9 nM | B9 |
| 0.13 nM | 3.24 nM | B10 |
| 0.11 nM | 3.69 nM | B11 |

target: T2, GIP receptor; test: cell-based or functional assay

| EC50 hGIPR 0.5% hP (CreLuc) | EC50 hGIPR 100% hP (CreLuc) | Binder |
| --- | --- | --- |
| 0.22 nM | 1.42 nM | B1 |
| 0.19 nM | 1.85 nM | B2 |
| 0.29 nM | 1.83 nM | B3 |
| 0.23 nM | 1.52 nM | B4 |
| 9.45 nM | 64.2 nM | B5 |
| 0.34 nM | 1.53 nM | B6 |
| 0.06 nM | 1.23 nM | B7 |
| 0.5 nM | 2.94 nM | B8 |
| 0.85 nM | 9.79 nM | B9 |
| 0.43 nM | 1.35 nM | B10 |
| 0.24 nM | 1.83 nM | B11 |
